Measured values reported in patent US6875599B2, “Mammalian secreted group III phospholipase A2” (Centre National de la Recherche Scientifique - CNRS, priority 2000, dated 2005).

Key:
[1] = Initial rate of hydrolysis of small unilamellar vesicles of phosphatidylglycerol and phosphatidylcholine; assay type: biochemical, human; conditions: Q-Sepharose purified hGIII sPLA2; data not shown
Procedure: (§1) Studies to measure the initial rate of hydrolysis of small unilamellar vesicles of phosphatidylglycerol (1-palmitoyl-2-([9,10[^3H])-palmitoyl-sn-glycero-3-phosphoglycerol in 1-palmitoyl-2-oleoyl-sn-glycero-3-phosphoglycerol at 50 Ci/mol) and phosphatidylcholine (1-palmitoyl-2-([9,10[^3H])-palmitoyl-sn-glycero-3-phosphocholine, 50 Ci/mol) were carried as described (8) using Q-Sepharose purified hGIII sPLA2. Initial rates were calculated from 3 time points in the linear portion of the product versus time curve. pH-rate profiles for the hydrolysis of phosphatidylcholine were obtained as described (8). The Ca^2+ dependency of phospholipid hydrolysis was carried out with the fluorimetric assay (described above) with 10 μM EGTA (no Ca^2+) or with CaCl2 in excess of EGTA to give 10-650 μM Ca^2+.

[2] = pH-rate profile for the hydrolysis of phosphatidylcholine; assay type: biochemical, human; conditions: Q-Sepharose purified hGIII sPLA2
Text: as §1, with “FIG. 4 presents the enzymatic properties of hGIII sPLA2. A, Ca^2+ dependency of the hydrolysis of 1 -palmitoyl-2-(10-pyrenedecanoyl)-sn-glycerol-3- phosphomethanol vesicles by Q-sepharose purified hGIII sPLA2. B, pH dependency of the hydrolysis of phosphatidylcholne vesicles by Q-Sepharose purified gGIII sPLA2. Studies” for “Studies”

B1: hGIII sPLA2: novel human secreted group III phospholipase A2, SEQ ID No. 2, expressed recombinantly in COS cells and partially purified on Q-Sepharose (protein, listed as Homo sapiens)
chain: MGVQAGLFGMLGFLGVALGGSPALRWYRTSCHLTKAVPGNPLGYLSFLAKDAQGLALIHARWDAHRRLQACSWEDEPELTAAYGALCAHETAWGSFIHTPGPELQRALATLQSQWEACRALEESPAGARKKRAAGQSGVPGGGHQREKRGWTMPGTLWCGVGDSAGNSSELGVFQGPDLCCREHDRCPQNISPLQYNYGIRNYRFHTISHCDCDTRFQQCLQNQHDSISDIVGVAFFNVLEIPCFVLEEQEACVAWYWWGGCRMYGTVPLARLQPRTFYNASWSSRATSPTPSSRSPAPPKPRQKQHLRKGPPHQKGSKRPSKANTTALQDPMVSPRLDVAPTGLQGPQGGLKPQGARWVCRSFRRHLDQCEHQIGPREIEFQLLNSAQEPLFHCNCTRRLARFLRLHSPPEVTNMLWELLGTTCFKLAPPLDCVEGKNCSRDPRAIRVSARHLRRLQQRRHQLQDKGTDERQPWPSEPLRGPMSFYNQCLQLTQAARRPDRQQKSWSQ
- Activity on anionic phosphatidylglycerol vesicles versus zwitterionic phosphatidylcholine vesicles, based on initial velocities [1]: 11 fold
- pH of optimal activity on phosphatidylcholine vesicles [2]: 8 pH
